Results as given in article PMC7476737, “Targeting 14-3-3ε-CDC25A interactions to trigger apoptotic cell death in skin cancer” (Oncotarget, 2020).
[ ]: non-standard residue; d: D form. pT = C[C@@H](OP(=O)(O)O)[C@H](N)C(=O)O; pS = N[C@@H](COP(=O)(O)O)C(=O)O

Molecular target: T1, 14-3-3ε (human (endogenous in SCC12B.2 and nHEK), UniProt P62258 1-255)
T1 sequence (looked up): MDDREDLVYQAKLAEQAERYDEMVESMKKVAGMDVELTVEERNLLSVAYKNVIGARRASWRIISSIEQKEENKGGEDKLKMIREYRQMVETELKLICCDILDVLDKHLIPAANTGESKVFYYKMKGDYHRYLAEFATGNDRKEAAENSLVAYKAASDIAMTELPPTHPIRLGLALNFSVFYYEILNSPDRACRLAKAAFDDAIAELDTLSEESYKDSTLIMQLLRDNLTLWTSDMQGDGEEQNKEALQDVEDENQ
Assay: cell-based or functional assay

B1: pS peptide (173-186 fragment of human CDC25A with phospho-Ser178) (peptide, UniProt P30304 173-186, looked up)
peptide: Ac-TQRQN[pS]APARMLSS-NH2
SMILES: CSCC[C@H](NC(=O)[C@H](CCCNC(=N)N)NC(=O)[C@H](C)NC(=O)[C@@H]1CCCN1C(=O)[C@H](C)NC(=O)[C@H](COP(=O)(O)O)NC(=O)[C@H](CC(N)=O)NC(=O)[C@H](CCC(N)=O)NC(=O)[C@H](CCCNC(=N)N)NC(=O)[C@H](CCC(N)=O)NC(=O)[C@@H](NC(C)=O)[C@@H](C)O)C(=O)N[C@@H](CC(C)C)C(=O)N[C@@H](CO)C(=O)N[C@@H](CO)C(N)=O
IC50 of SCC12B.2 cell viability (neutral red assay, 0-75 μM peptide, 96 h); the pair blocked is 14-3-3ε with CDC25A: 29 µM

B2: pT peptide (501-515 fragment of human CDC25A with phospho-Thr507) (peptide, UniProt P30304 501-515, looked up)
peptide: Ac-FRTKSR[pT]WAGEKSKR-NH2
SMILES: CC(=O)N[C@@H](Cc1ccccc1)C(=O)N[C@@H](CCCNC(=N)N)C(=O)N[C@H](C(=O)N[C@@H](CCCCN)C(=O)N[C@@H](CO)C(=O)N[C@@H](CCCNC(=N)N)C(=O)N[C@H](C(=O)N[C@@H](Cc1c[nH]c2ccccc12)C(=O)N[C@@H](C)C(=O)NCC(=O)N[C@@H](CCC(=O)O)C(=O)N[C@@H](CCCCN)C(=O)N[C@@H](CO)C(=O)N[C@@H](CCCCN)C(=O)N[C@@H](CCCNC(=N)N)C(N)=O)[C@@H](C)OP(=O)(O)O)[C@@H](C)O
IC50 of SCC12B.2 cell viability (neutral red assay, 0-75 μM peptide, 96 h); the pair blocked is 14-3-3ε with CDC25A: 22.6 µM
